According to US20230338553A1 (TECHNISCHE UNIVERSIT T DRESDEN, published 2023):
Blank lines part the entries; values can stand above or below the binder they belong to.

Legend:
[1] = molecular target: T1, Epidermal Growth Factor Receptor variant III (EGFRvIII) (UniProt P00533 25-1210); assay: flow cytometry on 293T^EGFRvIII cells, anti-myc and anti-biotin detection
T1 construct: whole, on cells
Method: The bound antibodies were detected either via their myc-epitope using anti-myc/FITC antibody or via their biotin residue using anti-biotin/PE antibody (1:10; Miltenyi Biotec, Bergisch Gladbach, Germany). Cells stained only with secondary antibody were included as a control. […] At least 10,000 stained cells were measured by flow cytometry (MACSQuant, Miltenyi Biotec, Bergisch Gladbach, Germany) and analyzed by FlowJo software version 7.6.5 (TreeStar Inc., Ashland, USA).
In this case the AM1-antibodies served as negative controls. Binding of scFvs and of scFv-P-BAPs was visualized with secondary anti-myc-PE (grey histograms in upper and middle graphs). […] Open histograms represent control staining only using secondary antibodies or an IgG-PE isotype control. […] Recombinant proteins were separated using SDS-PAGE, with parental single chain antibodies serving as controls. Blots were subsequently stripped and re-probed with biotin antibodies.

[2] = molecular target: T2, Prostate Stem Cell Antigen (PSCA) (human, UniProt O43653 12-83); assay: flow cytometry titration on 293T^PSCA cells, anti-myc-PE detection (Example 7, FIG. 9)
T2 construct: whole, on cells
T2 sequence (looked up): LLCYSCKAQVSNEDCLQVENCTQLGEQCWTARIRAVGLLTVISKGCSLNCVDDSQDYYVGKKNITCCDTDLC
Method: After detection with a secondary anti-myc-PE-antibody the MFIs were determined using a MACSQuant Cytometer (Miltenyi Biotech) and FlowJo software and the Kd values were calculated with the PRISM software program. FIG. 9 depicts the graphs for the KD value calculations.

B1: scFv(AM1)-P-BAP (scFv)
scFv: DAAQPARRARRTKLGTELGSQVKLQESGGGLVQPGGSLKLSCVASGFTFSSYTMSWVRRTPEKRLEWVAYIHNGGGHTYYPDTIKGRFTISRDNAKNTLFLEMSSLKSEDTAMYYCTRRMYYGNSHWYFDVWGAGTSVTVSSAKTTPPSVYGGGGSGGGGSGGGGSTNSDIVMTQSPSSLSASLGDRVTINCRTSQDISNYLNWYQLTPDGTVKLLIYYTLKLNSGVPSRFSGSGSGTDYSLTINNLEKEDFATYFCQQSKTLPWTFGGGTKLEIKRADAAPTVSGPKLSSKLKVTVNGTAYDVDVDVDKSHENPMGTILFGGGTGGAPAPAAGGAGAGKAGEGEIPAPLAGTVSKILVKEGDTVKAGQTVLVLEAMKMETEINAPTDGKVEKVLVKERDAVQGGQGLIKIGDLELIEGSSGPEQKLISEEDLNSAVDHHHHHH
modifications: mono-biotinylated at the C-terminal P-BAP (PSTCD biotin acceptor domain) when produced in 293T-huBirA cells
notes: PSCA-specific murine scFv derived from 7F5, fused to P-BAP, with myc tag and His6; also called murine scFv(AM1)-BAP
binding result [1]: no binding (tested: 1 µg scFv on 2×10^5 cells)

binding result [1]: binds
B2: scFv(MR1.1)-P-BAP (scFv)
scFv: DAAQPARRARRTKLGTELGSHMQVKLQQSGGGLVKPGASLKLSCVTSGFTFRKFGMSWVRQTSDKRLEWVASISTGGYNTYYSDNVKGRFTISRENAKNTLYLQMSSLKSEDTALYYCTRGYSPYSYAMDYWGQGTTVTVSSSGGGSGGGGSGGGGSDIELTQSPASLSVATGEKATIRCMTSTDIDDDMNWYQQKPGEPPKFLISEGNTLRPGVPSRFSSSGTGTDFVFTIENTLSEDVGDYYCLQSWNVPLTFGDGTKLEITKLSSKLKVTVNGTAYDVDVDVDKSHENPMGTILFGGGTGGAPAPAAGGAGAGKAGEGEIPAPLAGTVSKILVKEGDTVKAGQTVLVLEAMKMETEINAPTDGKVEKVLVKERDAVQGGQGLIKIGDLELIEGSSGPEQKLISEEDLNSAVDHHHHHH
modifications: mono-biotinylated at the C-terminal P-BAP (PSTCD biotin acceptor domain)
notes: EGFRvIII-specific scFv fused to P-BAP

fold better affinity (KD value) than the parental murine scFv(AM1) [2]: 100 fold
B3: scFv(h-AM1)-BAP (scFv)
scFv: DAAQPARRARRTKLGTELGSEVQLLESGGGLVQPGGSLRLSCVASGFTFSSYTMSWVRQAPGKGLEWVSYIHNGGGHTYYADSVKGRFTISRDNSKNTLYLQMNSLRAEDTAVYYCTRRMYYGNSHWYFDVWGAGTRVTITSAKTTPPSVYGGGGSGGGGSGGGGSTNSDIQMTQSPSSLSASVGDRVTITCRTSQSISNYLNWYQQKPGKAPKLLIYYTLKLNSGVPSRFSGSGSGTDFTLTISSLQPEDFATYYCQQSKTLPWTFGGGTKLEIKRADAAPTVSGPEQKLISEEDLNSAVDMSGLNDIFEAQKIEWHEGAPSSHHHHHH
modifications: mono-biotinylated at the C-terminal BAP (Bio-Tag)
notes: Fully humanized PSCA-specific scFv with N-terminal Ig kappa leader in the construct and C-terminal c-Myc tag, Bio-Tag and His6; also called humanized scFv(h-AM1)
